The target of test [1] is YY1 cellular transcription factor (UniProt P25490). The test is described as follows: co-immunoprecipitation (YY1 IP, FLAG-EBNA-LP immunoblot, band signal quantified). To be noted: 50% IP lanes; trans-complemented LPKO LCLs; parent: 1. A general note: A western blot detects proteins with antibodies after separation by electrophoresis.
Test [2] shares this target. The test can be described thus: co-immunoprecipitation (FLAG-EBNA-LP IP, YY1 immunoblot, band signal quantified). Conditions: 50% IP lanes; trans-complemented LPKO LCLs from total B cells; parent: 1.0.

Sequence of UniProt P25490 (P25490 whole entry): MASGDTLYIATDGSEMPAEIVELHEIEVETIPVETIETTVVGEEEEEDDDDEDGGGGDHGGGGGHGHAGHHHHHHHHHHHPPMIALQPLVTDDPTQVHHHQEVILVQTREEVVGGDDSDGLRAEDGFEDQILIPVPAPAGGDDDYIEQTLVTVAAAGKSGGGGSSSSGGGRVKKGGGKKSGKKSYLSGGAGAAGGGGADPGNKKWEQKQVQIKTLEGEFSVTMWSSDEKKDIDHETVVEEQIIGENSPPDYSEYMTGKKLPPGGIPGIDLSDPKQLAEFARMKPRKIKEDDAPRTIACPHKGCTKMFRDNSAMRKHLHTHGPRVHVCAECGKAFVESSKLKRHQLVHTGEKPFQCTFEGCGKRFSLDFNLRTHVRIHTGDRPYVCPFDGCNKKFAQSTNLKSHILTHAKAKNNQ

As for “FLAG-EBNA-LP, wild type (B95-8), four W domains W:L25A; W:L28A; W:L29A; Y:L13A; Y:L17A; Y:L18A”, the response in test [1] was 0; in test [2], 0.01.
